Laboratory results from US20200206312A1 (EISAI, published 2020).

Experiments:
[1] = molecular target: T1, Recombinant human NRP1 with His Tag (Sino Biological Inc.; Cat #1001-H08H) (human, UniProt O14786-2 22-644); assay: BLI (Octet Red96), biotinylated VEGF165 on streptavidin sensor, NRP1 in solution
T1 construct: also called Neuropilin 1
T1 sequence (looked up): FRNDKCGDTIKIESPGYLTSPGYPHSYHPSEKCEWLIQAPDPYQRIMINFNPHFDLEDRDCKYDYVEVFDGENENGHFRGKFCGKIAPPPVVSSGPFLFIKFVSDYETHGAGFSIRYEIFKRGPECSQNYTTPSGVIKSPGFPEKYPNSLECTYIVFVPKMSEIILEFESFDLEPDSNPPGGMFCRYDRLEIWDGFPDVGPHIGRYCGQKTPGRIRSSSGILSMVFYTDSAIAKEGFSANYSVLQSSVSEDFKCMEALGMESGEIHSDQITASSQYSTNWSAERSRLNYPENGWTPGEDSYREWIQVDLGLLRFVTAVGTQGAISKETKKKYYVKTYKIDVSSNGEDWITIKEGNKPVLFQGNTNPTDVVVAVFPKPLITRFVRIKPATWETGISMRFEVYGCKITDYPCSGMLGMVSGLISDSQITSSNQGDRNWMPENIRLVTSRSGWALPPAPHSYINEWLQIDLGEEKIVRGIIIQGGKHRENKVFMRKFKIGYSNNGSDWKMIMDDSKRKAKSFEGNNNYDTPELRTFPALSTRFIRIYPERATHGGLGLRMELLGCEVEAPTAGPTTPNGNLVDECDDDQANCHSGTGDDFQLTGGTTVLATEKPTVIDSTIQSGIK

[2] = molecular target: T1, Recombinant human NRP1 with His Tag …; assay: BLI (Octet Red96), biotinylated VEGF165 on streptavidin sensor, NRP1 in solution; value 1 of 6 in the cell
[3] = molecular target: T1, Recombinant human NRP1 with His Tag …; assay: BLI (Octet Red96), biotinylated VEGF165 on streptavidin sensor, NRP1 in solution; value 2 of 6 in the cell
[4] = molecular target: T1, Recombinant human NRP1 with His Tag …; assay: BLI (Octet Red96), biotinylated VEGF165 on streptavidin sensor, NRP1 in solution; value 3 of 6 in the cell
[5] = molecular target: T1, Recombinant human NRP1 with His Tag …; assay: BLI (Octet Red96), biotinylated VEGF165 on streptavidin sensor, NRP1 in solution; value 4 of 6 in the cell
[6] = molecular target: T1, Recombinant human NRP1 with His Tag …; assay: BLI (Octet Red96), biotinylated VEGF165 on streptavidin sensor, NRP1 in solution; value 5 of 6 in the cell
[7] = molecular target: T1, Recombinant human NRP1 with His Tag …; assay: BLI (Octet Red96), biotinylated VEGF165 on streptavidin sensor, NRP1 in solution; value 6 of 6 in the cell

B1: Biotinylated recombinant Human VEGF165 (ACRO Biosystems; Cat # VE5-H8210) (ligand, UniProt P15692-4 27-191, looked up)
chain: APMAEGGGQNHHEVVKFMDVYQRSYCHPIETLVDIFQEYPDEIEYIFKPSCVPLMRCGGCCNDEGLECVPTEESNITMQIMRIKPHQGQHIGEMSFLQHNKCECRPKKDRARQENPCGPCSERRKHLFVQDPQTCKCSCKNTDSRCKARQLELNERTCRCDKPRR
notes: also called biotinylated VEGF
B1 gave a Kd [1] of 40 to 98 nM, a Kd [2] of 43 nM and a Kd [3] of 26 nM. For the same binder, the Kd [4] was 75 nM, the Kd [5] was 98 nM and the Kd [6] was 18 nM. The Kd [7] was 26 nM.
